Literature values in patent US20060003347A1 (priority 2002, published 2006).

Tests used:
[1] = pH 8.5
[2] = literature

Molecule | Rate of base-catalysed hydrolysis [1] | kcat [2]
CCOP(=O)(OCC)Oc1ccc([N+](=O)[O-])cc1 [paraoxon] | 2.4e-07 s⁻¹ | 
catalase |  | 4e+07 s⁻¹
acetylcholinesterase |  | 14000 s⁻¹
